Source: patent US20240424106A1, “CONJUGATE PHARMACEUTICAL PREPARATION, PREPARATION METHOD THEREFOR AND USE THEREOF” (COHERENT BIOPHARMA (SUZHOU) LIMITED, priority 2021, published 2024)

Assays:
[1] = Screening of amount of pH regulator: dissolution in intermediate solutions; type: physicochemical; details: 0.5% sodium citrate solution after mannitol was added and CR19213 was dissolved
Procedure: The solubility of CR19213 is related to the pH value of a solution, and the amount of the pH regulator (expressed as the concentration of a buffer salt) directly influences the pH value of the solution. Therefore, the concentration of the buffer salt needs to be screened. Since CR19213 was added to the sodium citrate solution with pH 7.0, and completely dissolved to form an acidic solution, a 1.0% sodium citrate solution (11.4 mg/mL) with pH 7.5 (regulated with citric acid) was prepared in order to make the finished product be more near-neutral, and diluted with water to obtain sodium citrate solutions at concentrations of 0.1%, 0.25%, and 0.5%, respectively. Intermediate solutions were prepared using the above-mentioned sodium citrate solutions with different concentrations. The dissolution in the intermediate solutions during the preparation were investigated.
(1) a 1.0% sodium citrate solution with pH 7.5 (regulated with citric acid) was prepared for later use;
(2) dilution was carried out with water to obtain 0.1%, 0.25% and 0.5% sodium citrate solutions, respectively;
(3) a prescribed amount of mannitol was weighed, 70% of the total amount of the sodium citrate solution was added, stirring was carried out for dissolution, then a prescribed amount of CR19213 was added, and stirring was carried out for dissolution in a dark place at room temperature; and […]

[2] = Stated solubility and sensitivity of CR19213

Question: What does the source list for `CCC(C)C(C(CC(=O)N1CCCC1C(OC)C(C)C(=O)NC(C)C(O)c1ccccc1)OC)N(C)C(=O)C(NC(=O)C(C(C)C)N(C)C(=O)OCc1ccc(NC(=O)C(CCCNC(N)=O)NC(=O)C(NC(=O)CCCCCN2C(=O)CC(SCC(NC(=O)C(CCCCN)NC(=O)C(CC(=O)O)NC(=O)C(CC(=O)O)NC(=O)Cc3ccc(CNC(=O)NCCCCC(NC(=O)NC(CCC(=O)O)C(=O)O)C(=O)O)cc3)C(=O)NC(CCCCNC(=O)CCC(NC(=O)c3ccc(NCc4cnc5[nH]c(N)nc(=O)c5n4)cc3)C(=O)O)C(N)=O)C2=O)C(C)C)cc1)C(C)C` (stereo not drawn) [CR19213]?
Answer: pH value [1]: 5.95; Oxidation in solution [2]: easily oxidized; Sensitivity to temperature [2]: sensitive; Solubility in water [2]: poorly soluble; Stability to acids and alkalis [2]: unstable; Sensitivity to illumination ([2]; raw material): sensitive
